Here are results for two substances from US20260167731A1.

Assay [1] deals with human CCR8 (human) (UniProt P51685). Kind of assay: cell-based or functional assay.
The target is the same in assay [2]. Kind of assay: flow cytometry, hCCR8 transfected CHOK1 cells. For orientation: A flow cytometer gives signals particle by particle.

As to “hCCL1 (from UniProt P22362 24-96) (ligand)”, in the assay with human CCR8 (human) [1], the EC80 of hCCL1, hCCR8 Gi2 BRET, HEK-293 in suspension (protocol #1) is 6 nM and the EC80 of hCCL1, hCCR8 Gi2 BRET, adherent HEK-293 (protocol #4) stood at 0.6 nM.
In the assay with human CCR8 (human) [2], “murine anti-human CCR8 monoclonal antibody L263G8” returned a % positive cells of 86.5% and an MFI fold change to isotype ctrl of 19.8 fold.
